T1: LRRC7, Q96NW7
T1 sequence (Q96NW7 1440-1537, limits assumed, looked up): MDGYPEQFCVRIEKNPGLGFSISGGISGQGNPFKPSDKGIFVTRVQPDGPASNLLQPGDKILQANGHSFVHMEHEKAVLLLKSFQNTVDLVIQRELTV

T2: MPP7, Q5T2T1
T2 sequence (Q5T2T1 134-230, limits assumed, looked up): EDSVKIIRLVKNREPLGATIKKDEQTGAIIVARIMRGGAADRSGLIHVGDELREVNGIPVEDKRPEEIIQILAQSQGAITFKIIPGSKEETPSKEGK

T3: GRIP1_2, Q9Y3R0
T3 sequence (Q9Y3R0 145-248, limits assumed, looked up): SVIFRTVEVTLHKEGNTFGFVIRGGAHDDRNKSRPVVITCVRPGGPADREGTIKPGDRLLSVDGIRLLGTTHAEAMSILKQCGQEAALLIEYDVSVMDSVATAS

T4: MPDZ_5, O75970
T4 sequence (O75970 695-796, limits assumed, looked up): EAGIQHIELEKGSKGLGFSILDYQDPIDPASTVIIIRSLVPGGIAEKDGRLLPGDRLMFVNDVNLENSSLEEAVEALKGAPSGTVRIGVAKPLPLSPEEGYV

T5: GRIP1_7, Q9Y3R0
T5 sequence (Q9Y3R0 999-1096, limits assumed, looked up): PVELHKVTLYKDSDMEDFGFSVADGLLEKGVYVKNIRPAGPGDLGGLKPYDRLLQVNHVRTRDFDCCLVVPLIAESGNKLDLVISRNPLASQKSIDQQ

T6: CARD11, Q9BXL7
T6 sequence (Q9BXL7 662-765, limits assumed, looked up): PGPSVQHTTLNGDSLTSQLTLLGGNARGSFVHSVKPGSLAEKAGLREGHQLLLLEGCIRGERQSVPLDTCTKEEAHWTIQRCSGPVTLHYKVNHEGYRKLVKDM

T7: RAPGEF6, Q8TEU7
T7 sequence (Q8TEU7 525-625, limits assumed, looked up): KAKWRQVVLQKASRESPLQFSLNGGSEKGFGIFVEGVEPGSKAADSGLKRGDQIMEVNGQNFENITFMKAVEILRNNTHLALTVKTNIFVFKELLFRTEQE

T8: MPP6, Q9NZW5
T8 sequence (Q9NZW5 125-219, limits assumed, looked up): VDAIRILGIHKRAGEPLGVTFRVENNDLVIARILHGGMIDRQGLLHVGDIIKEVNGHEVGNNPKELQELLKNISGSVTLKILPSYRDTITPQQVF

T9: MPDZ_10, O75970
T9 sequence (O75970 1624-1722, limits assumed, looked up): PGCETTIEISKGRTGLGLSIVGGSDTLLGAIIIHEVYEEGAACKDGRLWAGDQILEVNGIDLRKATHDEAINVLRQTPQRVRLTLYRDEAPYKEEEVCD

T10: DFNB31_1, Q9P202
T10 sequence (Q9P202 135-233, limits assumed, looked up): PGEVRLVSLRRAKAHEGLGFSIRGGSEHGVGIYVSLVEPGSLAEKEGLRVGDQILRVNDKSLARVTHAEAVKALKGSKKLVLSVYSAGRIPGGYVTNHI

T11: RADIL, Q96JH8
T11 sequence (Q96JH8 971-1071, limits assumed, looked up): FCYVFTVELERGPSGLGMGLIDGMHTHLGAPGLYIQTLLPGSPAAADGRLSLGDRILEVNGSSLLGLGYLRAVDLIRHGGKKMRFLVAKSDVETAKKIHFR


Legend:
Test in all cases: holdup assay
Set-up in all cases: key: below the threshold = too weak to quantify, mostly under pKd 3.1 to 4
Conditions in all cases: plain residues with an end cap or a label only (N-terminal biotin on a linker: ado-ado)
[1] = target: T1, LRRC7, Q96NW7
[2] = target: T2, MPP7, Q5T2T1
[3] = target: T3, GRIP1_2, Q9Y3R0
[4] = target: FRMPD2_2, Q68DX3
[5] = target: Inadl_2, Q8NI35
[6] = target: Inadl_4, Q8NI35
[7] = target: T4, MPDZ_5, O75970
[8] = target: T5, GRIP1_7, Q9Y3R0
[9] = target: MAGI3_2, Q5TCQ9
[10] = target: GRIP2_6, Q9C0E4
[11] = target: T6, CARD11, Q9BXL7
[12] = target: FRMPD4, Q14CM0
[13] = target: T7, RAPGEF6, Q8TEU7
[14] = target: T8, MPP6, Q9NZW5
[15] = target: T9, MPDZ_10, O75970
[16] = target: T10, DFNB31_1, Q9P202
[17] = target: MAST1, Q9Y2H9
[18] = target: T11, RADIL, Q96JH8
[19] = target: MAGI2_5, Q86UL8
[20] = target: HTRA2, O43464
[21] = target: NHERF4_1, Q86UT5-2
[22] = target: FRMPD3, Q5JV73
[23] = target: LDB3, O75112
[24] = target: DLG4_2, P78352
[25] = target: IL16_1, Q14005
[26] = target: GOPC, Q9HD26

Sequence of Inadl_4, Q8NI35 (Q8NI35 547-651): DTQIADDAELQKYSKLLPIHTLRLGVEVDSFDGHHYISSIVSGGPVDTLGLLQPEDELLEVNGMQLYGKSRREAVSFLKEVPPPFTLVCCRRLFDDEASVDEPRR
Sequence of IL16_1, Q14005 (Q14005 210-306): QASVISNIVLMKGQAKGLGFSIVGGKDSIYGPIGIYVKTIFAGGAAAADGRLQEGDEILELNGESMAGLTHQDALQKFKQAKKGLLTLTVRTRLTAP
Sequence of LDB3, O75112 (O75112 1-94): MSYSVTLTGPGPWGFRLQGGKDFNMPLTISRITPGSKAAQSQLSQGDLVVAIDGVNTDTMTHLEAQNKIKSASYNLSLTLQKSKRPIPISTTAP
Sequence of GRIP2_6, Q9C0E4 (Q9C0E4 648-740): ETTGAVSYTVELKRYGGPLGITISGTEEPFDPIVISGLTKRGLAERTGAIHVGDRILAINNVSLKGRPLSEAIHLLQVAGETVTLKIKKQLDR
Sequence of DLG4_2, P78352 (P78352 155-259): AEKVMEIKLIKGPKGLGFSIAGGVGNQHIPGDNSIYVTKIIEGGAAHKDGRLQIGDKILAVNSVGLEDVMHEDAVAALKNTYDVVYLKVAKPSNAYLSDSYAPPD
Sequence of FRMPD3, Q5JV73 (Q5JV73 12-100): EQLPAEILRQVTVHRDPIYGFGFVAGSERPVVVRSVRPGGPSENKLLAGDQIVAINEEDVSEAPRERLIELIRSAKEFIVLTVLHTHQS
Sequence of HTRA2, O43464 (O43464 355-458): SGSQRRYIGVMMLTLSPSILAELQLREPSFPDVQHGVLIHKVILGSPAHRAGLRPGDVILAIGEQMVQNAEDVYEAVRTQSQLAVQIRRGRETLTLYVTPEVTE
Sequence of FRMPD4, Q14CM0 (Q14CM0 67-160): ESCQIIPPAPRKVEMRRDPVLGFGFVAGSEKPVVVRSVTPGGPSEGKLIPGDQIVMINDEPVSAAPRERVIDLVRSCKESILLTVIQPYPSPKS
Sequence of FRMPD2_2, Q68DX3 (Q68DX3 944-1038): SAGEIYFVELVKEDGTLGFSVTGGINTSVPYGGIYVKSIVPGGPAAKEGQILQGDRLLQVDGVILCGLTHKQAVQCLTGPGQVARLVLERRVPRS
Sequence of MAST1, Q9Y2H9 (Q9Y2H9 962-1065): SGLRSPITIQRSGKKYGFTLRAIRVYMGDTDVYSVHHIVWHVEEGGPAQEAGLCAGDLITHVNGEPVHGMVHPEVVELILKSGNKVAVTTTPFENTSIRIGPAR
Sequence of MAGI2_5, Q86UL8 (Q86UL8 915-1017): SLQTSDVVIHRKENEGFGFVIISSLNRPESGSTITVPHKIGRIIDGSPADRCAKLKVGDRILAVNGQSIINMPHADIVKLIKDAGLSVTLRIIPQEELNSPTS
Sequence of MAGI3_2, Q5TCQ9 (Q5TCQ9 398-503): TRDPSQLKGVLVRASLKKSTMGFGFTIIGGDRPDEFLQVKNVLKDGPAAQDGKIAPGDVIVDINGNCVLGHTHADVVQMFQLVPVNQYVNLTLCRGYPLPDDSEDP
Sequence of NHERF4_1, Q86UT5-2 (Q86UT5 other isoform, or with tags, fused parts or gaps): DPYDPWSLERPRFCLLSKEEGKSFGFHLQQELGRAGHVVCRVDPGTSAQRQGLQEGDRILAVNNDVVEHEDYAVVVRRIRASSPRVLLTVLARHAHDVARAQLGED
Sequence of Inadl_2, Q8NI35 (Q8NI35 238-335): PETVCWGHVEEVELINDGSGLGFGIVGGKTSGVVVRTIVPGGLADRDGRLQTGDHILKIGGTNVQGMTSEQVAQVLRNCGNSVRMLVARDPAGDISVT

Row | Binder | pKd [1] | pKd [2] | pKd [3] | pKd [4] | pKd [5] | pKd [6] | pKd [7] | pKd [8] | pKd [9] | pKd [10] | pKd [11] | pKd [12] | pKd [13] | pKd [14] | pKd [15] | pKd [16] | pKd [17] | pKd [18] | pKd [19] | pKd [20] | further results
1 | PDGQCTVTEV [RNF146, Q9NTX7] | 3.89 | below the threshold | below the threshold | 4.44 | below the threshold | below the threshold | below the threshold | 3.51 | 4.21 | below the threshold | below the threshold | below the threshold | below the threshold | 3.92 | below the threshold | 3.9 | 4.8 | 4.62 | 4.47 | below the threshold | pKd [21]: 3.89; pKd [22]: below the threshold; pKd [23]: below the threshold; pKd [24]: 5.07; pKd [25]: 4.17; pKd [26]: 4.04
2 | DTTVPESEDL [MYOZ2, Q9NPC6] | below the threshold | below the threshold | below the threshold | below the threshold | below the threshold | below the threshold | below the threshold | below the threshold | below the threshold | below the threshold | below the threshold | 3.66 | below the threshold | below the threshold | below the threshold | below the threshold | 4.21 | below the threshold | below the threshold | below the threshold | pKd [21]: 3.92; pKd [22]: below the threshold; pKd [23]: 5.26; pKd [24]: below the threshold; pKd [25]: below the threshold; pKd [26]: below the threshold
3 | NHSSSPETTA [TRMT13, Q9NUP7] | below the threshold | below the threshold | below the threshold | below the threshold | below the threshold | below the threshold | below the threshold | below the threshold | below the threshold | below the threshold | below the threshold | below the threshold | below the threshold | below the threshold | below the threshold | below the threshold | 3.55 | below the threshold | below the threshold | below the threshold | pKd [21]: below the threshold; pKd [22]: below the threshold; pKd [23]: below the threshold; pKd [24]: below the threshold; pKd [25]: below the threshold; pKd [26]: below the threshold
4 | SAKVRTVTSV [RASL11B, Q9BPW5] | below the threshold | below the threshold | below the threshold | 3.97 | below the threshold | below the threshold | below the threshold | below the threshold | 5.74 | 3.63 | below the threshold | below the threshold | below the threshold | below the threshold | below the threshold | 3.77 | 4.77 | 3.94 | below the threshold | below the threshold | pKd [21]: 3.77; pKd [22]: below the threshold; pKd [23]: below the threshold; pKd [24]: 5.08; pKd [25]: below the threshold; pKd [26]: 4.07
